{"source": "patent KR20200059381A", "key": {"[1]": {"molecular_target": "구제역 바이러스 혈청형 O 배양액(cal1~cal4) (Foot-and-mouth disease virus serotype O)", "assay": "sandwich ELISA, cal4, 1E58 coat 2 ug/ml, 1E58-HRP 0.4 ug/ml, 450 nm"}, "[2]": {"molecular_target": "구제역 바이러스 혈청형 O 배양액(cal1~cal4) (Foot-and-mouth disease virus serotype O)", "assay": "sandwich ELISA, cal4, 1E58 coat 8 ug/ml, 1E58-HRP 0.2 ug/ml, 450 nm"}}}
{"binder": "단클론항체 1E58 (antibody, V domains shown) VH: EFQLQQSRPELAKPGASVKISCKTSGHTFTTYTMHWVKQSHVKSLEWIGCFNPNNGGATYNQKFKGKATLTMDKSSNTAYVEVRSLTSDDSAVYYCAYGNYVNFDYWGQGTTLTVSS VL: DIVLTQSPASLAVSLGQRATISYRASKSVSTSGYSYMHWNQQKPGQPPRLLIYLVSNLESGVPARFSGSGSGTDFTLNIHPVEEEDAATYYCQHIRELTRSEGGPSWKN", "values": [{"measurement": "O.D", "setting": "[1]", "value": 0.56, "unit": "O.D"}, {"measurement": "O.D", "setting": "[2]", "value": 0.27, "unit": "O.D"}]}
